The text below walks through data of patent US20070197457A1.

In assay [1] the target is GAL4 DNA binding domain fused in-frame to full-length SMAD1 (UniProt P04386). As to the kind of experiment: cell-based or functional assay.
For assay [2], the target named is SMAD1 (wild-type, full-length R-SMAD). In words: cell-based or functional assay.

In assay [1], “dominant-negative TAK1 (TAK1dn) mutant (K63W) (from UniProt Q62073 1-579) (enzyme)” came in with a GAL4/UAS-luciferase reporter, SMAD trans-activation activity at higher amounts of TAK1dn of 70% and a GAL4/UAS-luciferase reporter, SMAD trans-activation, increase at low concentrations of TAK1dn of 35%.
In turn, “constitutively active TAK1 (TAK1ca) lacking the 22 N-terminal amino acids (from UniProt Q62073 23-579) (enzyme)” registered an SMAD1-SBE CAT reporter (SMAD1-mediated transcription), maximum reduction in assay [2] of 10%. Moreover, the GAL4/UAS-luciferase reporter, caALK6-receptor-mediated trans-activation of SMAD1, maximum inhibition in assay [1] is 40.
